This is an account of results in US11160869B2 (priority 2019, dated 2021).

As usually defined, the EC50 is the concentration at which the effect is half-maximal.

One data set addresses T1, IL-10RA and IL-10RB (Homo sapiens, UniProt Q08334+Q13651).
T1 sequence (Q13651 22-578): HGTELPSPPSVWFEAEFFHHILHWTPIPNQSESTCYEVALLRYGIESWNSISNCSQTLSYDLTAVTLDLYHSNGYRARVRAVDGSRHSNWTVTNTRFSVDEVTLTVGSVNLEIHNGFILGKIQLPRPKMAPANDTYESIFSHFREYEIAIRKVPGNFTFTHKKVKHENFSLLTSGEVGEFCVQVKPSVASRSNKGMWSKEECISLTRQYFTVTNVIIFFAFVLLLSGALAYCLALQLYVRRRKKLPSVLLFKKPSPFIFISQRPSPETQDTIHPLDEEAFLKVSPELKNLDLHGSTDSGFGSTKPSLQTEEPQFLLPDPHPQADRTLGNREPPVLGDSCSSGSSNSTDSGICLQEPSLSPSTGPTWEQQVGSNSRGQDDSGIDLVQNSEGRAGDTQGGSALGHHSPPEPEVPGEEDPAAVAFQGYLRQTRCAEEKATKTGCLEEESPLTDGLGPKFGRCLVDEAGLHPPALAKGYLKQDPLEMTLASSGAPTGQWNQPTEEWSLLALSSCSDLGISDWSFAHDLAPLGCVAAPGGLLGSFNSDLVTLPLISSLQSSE
T1 sequence (Q08334 20-325): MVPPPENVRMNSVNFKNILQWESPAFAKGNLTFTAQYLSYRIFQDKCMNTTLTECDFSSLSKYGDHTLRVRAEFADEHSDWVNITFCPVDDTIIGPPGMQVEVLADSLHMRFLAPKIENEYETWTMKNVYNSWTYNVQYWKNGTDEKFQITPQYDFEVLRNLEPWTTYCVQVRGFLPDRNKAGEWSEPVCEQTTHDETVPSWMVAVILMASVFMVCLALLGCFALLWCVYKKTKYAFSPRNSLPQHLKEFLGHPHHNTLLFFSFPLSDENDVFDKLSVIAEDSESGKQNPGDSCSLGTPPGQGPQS
The data set can be described thus: IL-10 receptor dimerization luminescence assay in engineered U2OS cells. The note with it: read-out: EC50, IL-10R dimerization; 6 h.

The nature of data set [1]: Compression force screening, tablet properties and dimer recovery on dissolution. The format is physicochemical. The note with it: F1 and F2 tablets. As for the experimental part:
Various compression forces were used to create F1 tablets (TABLE 31) and F2 tablets (TABLE 32). Dimer purity of the target construct was also examined following compaction into a tablet. […] Dimer recovery was also assessed following dissolution of various tablets at pH 7.0 (FIGS. 20A-20D).
An additional tablet (F3) was created, which was similar to an F1 tablet but with glyceryl dibehenate in place of magnesium stearate (TABLE 33). This substitution was made due to incompatibility of magnesium stearate in dissolution of target constructs in solution.

For a further data set, the system named is human SMI-100 monolayers. Briefly: Transport across polarized human small intestinal cell monolayers (SMI-100), western blot. The note with it: apical to basal, 2 hr. Background: Immunoblotting shows a protein as a band on a membrane.
Data set [2] is described as follows: Intraluminal injection in T-cell transfer model: rhIL-10 ELISA in intestinal tissue and serum. The format is in vivo, BALB/c and SCID mice. As to the method:
This study was conducted to examine the potential for the carrier protein to transport rhIL-10 from the intestinal lumen into the submucosal region in inflamed intestinal tissue. The T lymphocyte (T cell) transfer model was used as it is a well-established model of induced chronic colitis in mice and presents many of the essential immunological hallmarks observed in IBD patients. Nine BALB/c mice and twelve SCID mice, including nine with the colitis-like model of inflammation, were dosed with 20 μl of test article via intraluminal injection into the distal ileum and the proximal, middle and distal colon. […] In each group, two mice were terminated 10 minutes after intraluminal injections, and one was terminated 40 minutes after intraluminal injections. Intestinal tissue and serum were collected. Collected tissue was fixed, embedded, sectioned and H&E stained for histological assessment of inflammatory status. ELISA analysis to measure rhIL 10 was performed on lysates prepared from intestinal tissue and serum (FIGS. 106A-106D).
(In general: In an ELISA, binding on a coated surface is turned into a signal by an enzyme label.)

In the next data set the test system is IL-1Ra, IL-1β. The data set can be described thus: RT-PCR of IL-1Ra and IL-1β in near-distal colon. The format is in vivo, mice. As to conditions: 9 mg/kg.
In data set [3] the test system is enterocytes and lamina propria cells. Briefly: Vesicular trafficking during apical to basal transcytosis (Rab7, Rab11, LMAN1, LAMP1), rat jejunum. The format is in vivo. As to the method: Immunofluorescence microscopy images of rat jejunum were obtained following a 50 uL intraluminal injection of an IL-10 delivery construct prepared in PBS at ˜40 uM. For FIGS. 129-133: arrow=apical (luminal) epithelial membrane; dashed line=epithelial cell-basement membrane demarcation; 1-p=lamina propria; G=goblet cell. Cell nuclei stained with DAPI (blue).
The timing of LMAN1 redistribution to the basal compartment coincides with the presence of hIL-10 being ultimately detected in non-polarized cells within the lamina propria where it was not associated with LMAN1.
Ultimately, the delivery construct is delivered to lysosome-like structures within a large fraction of cells within the lamina propria, an outcome that would limit its systemic distribution following A-B transcytosis.

Another data set deals with STAT3. The data set can be described thus: STAT3 phosphorylation in J774.2 macrophage cells.
Data set [4] is described as follows: Intracolonic spray in NHP: IL-1Ra, pSTAT3, construct and IL-10 in tissue and serum. The format is in vivo, cynomolgus monkeys. The source says: This was achieved using a colonoscope with an associated spray nozzle. In this way, refined information for onset and duration of IL-1Ra induction could be obtained at specific local doses. […] The variability of pSTAT3/total STAT3 detected was consistent with tissue capture and stability challenges in this in vivo model. Measurement of tissue delivery construct levels had similar tissue capture and stability challenges, showing low and variable amounts in the tissue samples collected (FIG. 143). […] Since IL-10 can induce cells to produce more IL-10, we also looked for induced IL-10. […] It is important to note, due to the similarity of human and NHP IL-10, that ELISA values shown could also include hIL-10 that has somehow separated from the carrier domain of the delivery construct molecule. While this cannot be ruled out, no other data supports this as an outcome and it appears likely that the majority, if not all, tissue and serum IL-10 measured represents an NHP source.

B1: IL-10 delivery construct: recombinant homodimeric fusion protein: N-terminal methionine, cholix386 domain, polyGlySer spacer, recombinant human IL-10 (protein)
chain: MVEEALNIFDECRSPCSLTPEPGKPIQSKLSIPSDVVLDEGVLYYSMTINDEQNDIKDEDKGESIITIGEFATVRATRHYVNQDAPFGVIHLDITTENGTKTYSYNRKEGEFAINWLVPIGEDSPASIKISVDELDQQRNIIEVPKLYSIDLDNQTLEQWKTQGNVSFSVTRPEHNIAISWPSVSYKAAQKEGSRHKRWAHWHTGLALCWLVPMDAIYNYITQQNCTLGDNWFGGSYETVAGTPKVITVKQGIEQKPVEQRIHFSKGNAMSALAAHRVCGVPLETLARSRKPRDLTDDLSCAYQAQNIVSLFVATRILFSHLDSVFTLNLDEQEPEVAERLSDLRRINENNPGMVTQVLTVARQIYNDYVTHHPGLTPEQTSAGAQAGGGGSGGGGSGGGGSPGQGTQSENSCTHFPGNLPNMLRDLRDAFSRVKTFFQMKDQLDNLLLKESLLEDFKGYLGCQALSEMIQFYLEEVMPQAENQDPDIKAHVNSLGENLKTLRLRLRRCHRFLPCENKSKAVEQVKNAFNKLQEKGIYKAMSEFDIFINYIEAYMTMKIRN
modifications: homodimer
For B1, the EC50 with IL-10RA and IL-10RB came out at 0.971 nM. The “robustness of dimer to compaction into tablet” value in data set [1] is “robust to compaction and granulation, although some aggregation was observed in final tablet form”. In the data set with human SMI-100 monolayers, the “transport across monolayers relative to rhIL-10” value is “to a greater extent”. Moreover, in data set [2] (159 pmoles), the “rhIL-10 levels in inflamed tissue relative to rhIL-10 alone” value is listed as “approximately 10 fold higher” and the “uptake in normal intestinal tissues compared to rhIL-10 alone” value was “two- to five-fold higher”. Also, the “rhIL-10 in intestinal tissue compared to rhIL-10 alone” value in data set [2] (159 pmoles, 10-minute exposure) was “substantially higher”. Further, in data set [2] (intraluminal injection), the “rhIL-10 in serum of healthy animals” value is reported as “moderately high rhIL-10 detected” and the “rhIL-10 in serum of inflamed animals” value is recorded as “minimal amounts of rhIL-10 were detected”. Also, in the data set on IL-1Ra, IL-1β, the “IL-1Ra/IL-1β mRNA ratio in colonic tissue” value was “increase” and the “mRNA expression of IL-1Ra in near-distal colonic tissue” value was “trend towards augmented mRNA expression of IL-1Ra”. Besides, the “co-localization with LMAN1” value in data set [3] (1-15 min) is reported as “co-localized with redistributing LMAN1”. Also, the “co-localization with LAMP1 in polarized enterocytes” value in data set [3] (1 min post ILI, not increasing over 15 min) is on record as “Limited LAMP1/delivery construct co-localizations”. The “co-localization with LAMP1 in non-polarized cells within the lamina propria” value in data set [3] (10 min and 15 min post ILI) was “extensive LAMP1/delivery construct co-localizations”. In addition, in data set [3] (rat, in vivo), the “co-localization with Rab7+ vesicles in enterocytes” value is recorded as “predominantly in the apical vesicular compartment”, the “co-localization with Rab11+ vesicles in enterocytes” value was “mostly in the basal vesicular compartment” and the “time course of completion of A-B transcytosis” value fell in the range of 10 to 15 min. Further, the “amplitude of pSTAT3/total STAT3” value with STAT3 was around 1.47%. Moreover, the EC50 in the data set on STAT3 (read-out: EC50, phosphorylation of STAT3, 20 min stimulation) came out at 0.264 nM. For the same molecule, the “serum levels of IL-10” value in data set [4] is reported as “increased in a dose-dependent manner”. In data set [4] (1, 3, or 10 mg colonic spray), the “serum levels of the delivery construct” value is given as “below the assay detection limit”. Moreover, the “time to reach the lamina propria following luminal application” value in data set [4] (cynomolgus monkey, in vivo) is around 15 min. The “tissue IL-10 levels” value in data set [4] (within 15 min after spray) was “dose-dependent and transient increases”.
